Data from US20220308056.

Target: recombinant SARS-Cov-2 nucleocapsid protein (NP2), P0DTC9

B1: recombinant MASP-2 (rMASP-2) of Example 23 (protein)
chain: TPLGPKWPEPVFGRLASPGFPGEYANDQERRWTLTAPPGYRLRLYFTHFDLELSHLCEYDFVKLSSGAKVLATLCGQESTDTERAPGKDTFYSLGSSLDITFRSDYSNEKPFTGFEAFYAAEDIDECQVAPGEAPTCDHHCHNHLGGFYCSCRAGYVLHRNKRTCSALCSGQVFTQRSGELSSPEYPRPYPKLSSCTYSISLEEGFSVILDFVESFDVETHPETLCPYDFLKIQTDREEHGPFCGKTLPHRIETKSNTVTITFVTDESGDHTGWKIHYTSTAQPCPYPMAPPNGHVSPVQAKYILKDSFSIFCETGYELLQGHLPLKSFTAVCQKDGSWDRPMPACSIVDCGPPDDLPSGRVEYITGPGVTTYKAVIQYSCEETFYTMKVNDGKYVCEADGFWTSSKGEKSLPVCEPVCGLSARTTGGRIYGGQKAKPGDFPWQVLILGGTTAAGALLYDNWVLTAAHAVYEQKHDASALDIRMGTLKRLSPHYTQAWSEAVFIHEGYTHDAGFDNDIALIKLNNKVVINSNITPICLPRKEAESFMRTDDIGTASGWGLTQRGFLARNLMYVDIPIVDHQKCTAAYEKPPYPRGSVTANMLCAGLESGGKDSCRGDSGGALVFLDSETERWFVGGIVSWGSMNCGEAGQYGVYTKVINYIPWIENIISDF
C4 cleavage on NP2-coated wells (SDS-PAGE Western blot): a new band corresponding to C4′α
